T1: CD40L over-expressed on Expi293 cells (UniProt P29965 1-261, limits assumed)
T1 construct: whole, on cells; also called cytokine over-expressing Expi293 cells
T1 sequence (looked up): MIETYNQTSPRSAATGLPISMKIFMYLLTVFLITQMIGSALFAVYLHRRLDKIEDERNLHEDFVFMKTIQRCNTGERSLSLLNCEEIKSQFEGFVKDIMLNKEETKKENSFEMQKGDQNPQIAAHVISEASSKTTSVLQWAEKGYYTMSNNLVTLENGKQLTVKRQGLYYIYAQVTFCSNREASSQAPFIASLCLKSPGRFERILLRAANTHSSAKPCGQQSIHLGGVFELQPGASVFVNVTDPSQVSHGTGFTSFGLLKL


biological target: T1, CD40L over-expressed on Expi293 cells; experiment: flow cytometry, 100 nM antibody, CD40L-Expi293 vs parent Expi293 cells;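 note: ratio is the mean fluorescence intensity on CD40L-overexpressing Expi293 cells divided by the mean fluorescence intensity on parental Expi293 cells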
Procedure: All incubations and washes were in buffer containing PBS+1% BSA. MFI Ratio is defined by the mean fluorescence intensity (MFI) of the cytokine over-expressing Expi293 cell over the Expi293 parent cell. […] EC50 was calculated in GraphPad Prism.

Row | Binder | 100 nM FACS (MFI Ratio)
1 | CD40L-164 (antibody, V domains shown, IgG2) VH: EVQLLESGGGLVQPGGSLRLSCAASGFDFSDYEMSWVRQAPGKGLEWVSSITSEGGSTYYADSVKGRFTISRDNSKNTLYLQMNSLRAEDTAVYYCAKPDVLFDYWGQGTLVTVSS VL: DIQMTQSPSSLSASVGDRVTITCRASSSVSYMHWYQQKPGKAPKLLIYAASDLESGVPSRFSGSGSGTDFTLTISSLQPEDFATYYCSQSTHVPTFGQGTKVEIK | 0.4 ratio
2 | CD40L-178 (antibody, V domains shown, IgG2) VH: EVQLLESGGGLVQPGGSLRLSCAASGFTFEDYQMGWVRQAPGKGLEWVSSITSEGGSTYYADSVKGRFTISRDNSKNTLYLQMNSLRAEDTAVYYCAKPGRDFDYWGQGTLVTVSS VL: DIQMTQSPSSLSASVGDRVTITCRASQPIVRNLRWYQQKPGKAPKLLIYGASSLESGVPSRFSGSGSGTDFTLTISSLQPEDFATYYCLQNVANPATFGQGTKVEIK | 6.4 ratio
3 | CD40L-177 (antibody, V domains shown, IgG2) VH: EVQLLESGGGLVQPGGSLRLSCAASGFTFASYEMTWVRQAPGKGLEWVSSITSEGGSTYYADSVKGRFTISRDNSKNTLYLQMNSLRAEDTAVYYCAKPDVLFDYWGQGTLVTVSS VL: DIQMTQSPSSLSASVGDRVTITCRASQDVSSGVAWYQQKPGKAPKLLIYDASNLQSGVPSRFSGSGSGTDFTLTISSLQPEDFATYYCSQSTRVPPTFGQGTKVEIK | 8.9 ratio
4 | CD40L-185 (antibody, V domains shown, IgG2) VH: EVQLLESGGGLVQPGGSLRLSCAASGFDFSDYEMSWVRQAPGKGLEWVSSITSEGGSTYYADSVKGRFTISRDNSKNTLYLQMNSLRAEDTAVYYCAKPDQFLDYWGQGTLVTVSS VL: DIQMTQSPSSLSASVGDRVTITCRASQTIERRLNWYQQKPGKAPKLLIYGTTSLESGVPSRFSGSGSGTDFTLTISSLQPEDFATYYCHHWHHNPTHHETNVFGQGTKVEIK | 4.5 ratio
5 | CD40L-187 (antibody, V domains shown, IgG2) VH: EVQLLESGGGLVQPGGSLRLSCAASGFDFSDYEMSWVRQAPGKGLEWVSSITSEGGSTYYADSVKGRFTISRDNSKNTLYLQMNSLRAEDTAVYYCAKPGKNFDYWGQGTLVTVSS VL: DIQMTQSPSSLSASVGDRVTITCRASSSVSYMHWYQQKPGKAPKLLIYHTSRLQSGVPSRFSGSGSGTDFTLTISSLQPEDFATYYCSAFTHNSDVFGQGTKVEIK | 2.3 ratio
6 | CD40L-186 (antibody, V domains shown, IgG2) VH: EVQLLESGGGLVQPGGSLRLSCAASGFDFSDYEMSWVRQAPGKGLEWVSSITSEGGSTYYADSVKGRFTISRDNSKNTLYLQMNSLRAEDTAVYYCAKPDVLFDYWGQGTLVTVSS VL: DIQMTQSPSSLSASVGDRVTITCRASQGVRTSLAWYQQKPGKAPKLLIYENNNRPSGVPSRFSGSGSGTDFTLTISSLQPEDFATYYCSQSTHVPPTFGQGTKVEIK | 2.7 ratio
7 | CD40L-171 (antibody, V domains shown, IgG2) VH: EVQLLESGGGLVQPGGSLRLSCAASGFDFSDYEMSWVRQAPGKGLEWVSSITSEGGSTYYADSVKGRFTISRDNSKNTLYLQMNSLRAEDTAVYYCAKPDQFFDYWGQGTLVTVSS VL: DIQMTQSPSSLSASVGDRVTITCRASSSVSYMHWYQQKPGKAPKLLIYQNDKRPSGVPSRFSGSGSGTDFTLTISSLQPEDFATYYCQQHYSPSHTFGQGTKVEIK | 0.4 ratio
8 | CD40L-179 (antibody, V domains shown, IgG2) VH: EVQLLESGGGLVQPGGSLRLSCAASGFDFSDYEMSWVRQAPGKGLEWVSSITSEGGSTYYADSVKGRFTISRDNSKNTLYLQMNSLRAEDTAVYYCAKPDVLFDYWGQGTLVTVSS VL: DIQMTQSPSSLSASVGDRVTITCRASQSILSYLNWYQQKPGKAPKLLIYGTSKLASGVPSRFSGSGSGTDFTLTISSLQPEDFATYYCQSYDNDFYGTVFGQGTKVEIK | 3.1 ratio
9 | CD40L-169 (antibody, V domains shown, IgG2) VH: EVQLLESGGGLVQPGGSLRLSCAASGFDFSDYEMSWVRQAPGKGLEWVSSITSEGGSTYYADSVKGRFTISRDNSKNTLYLQMNSLRAEDTAVYYCAKPDVLFDYWGQGTLVTVSS VL: DIQMTQSPSSLSASVGDRVTITCSGDKLGDKYAYWYQQKPGKAPKLLIYFTSTLAAGVPSRFSGSGSGTDFTLTISSLQPEDFATYYCQQSYSSAPTFGQGTKVEIK | 0.4 ratio
10 | CD40L-189 (antibody, V domains shown, IgG2) VH: EVQLLESGGGLVQPGGSLRLSCAASGFDFSDYEMSWVRQAPGKGLEWVSSITSEGGSTYYADSVKGRFTISRDNSKNTLYLQMNSLRAEDTAVYYCAKPDKTFDYWGQGTLVTVSS VL: DIQMTQSPSSLSASVGDRVTITCSGDTLGGKYAWWYQQKPGKAPKLLIYDNTNRPSGVPSRFSGSGSGTDFTLTISSLQPEDFATYYCQAWDNSAVIFGQGTKVEIK | 4.7 ratio
11 | CD40L-172 (antibody, V domains shown, IgG2) VH: EVQLLESGGGLVQPGGSLRLSCAASGFDFSDYEMSWVRQAPGKGLEWVSSITSEGGSTYYADSVKGRFTISRDNSKNTLYLQMNSLRAEDTAVYYCAKPDVLFDYWGQGTLVTVSS VL: DIQMTQSPSSLSASVGDRVTITCKASQHVITHVTWYQQKPGKAPKLLIYGTSDLQSGVPSRFSGSGSGTDFTLTISSLQPEDFATYYCQQSNSWPYTFGQGTKVEIK | 0.5 ratio
12 | CD40L-191 (antibody, V domains shown, IgG2) VH: EVQLLESGGGLVQPGGSLRLSCAASGFDFSDYEMSWVRQAPGKGLEWVSSITSEGGSTYYADSVKGRFTISRDNSKNTLYLQMNSLRAEDTAVYYCAKPDVLFDYWGQGTLVTVSS VL: DIQMTQSPSSLSASVGDRVTITCSGNKLGDKYASWYQQKPGKAPKLLIYDTSKVASGVPSRFSGSGSGTDFTLTISSLQPEDFATYYCQQSYETPLTFGQGTKVEIK | 9.7 ratio
13 | CD40L-162 (antibody, V domains shown, IgG2) VH: EVQLLESGGGLVQPGGSLRLSCAASGGYNFRDYMHWVRQAPGKGLEWVAEIRNKANNHATKYADSVKGRFTISRDNSKNTLYLQMNSLRAEDTAVYYCAKNLGQGFDYWGQGTLVTVSS VL: DIQMTQSPSSLSASVGDRVTITCRTSQDISNYLNWYQQKPGKAPKLLIYATSNLASGVPSRFSGSGSGTDFTLTISSLQPEDFATYYCQQSYSSAPMFGQGTKVEIK | 0.3 ratio
14 | CD40L-165 (antibody, V domains shown, IgG2) VH: EVQLLESGGGLVQPGGSLRLSCAASGFDFSDYEMSWVRQAPGKGLEWVSSITSEGGSTYYADSVKGRFTISRDNSKNTLYLQMNSLRAEDTAVYYCAKPDVLFDYWGQGTLVTVSS VL: DIQMTQSPSSLSASVGDRVTITCRTSQDISNYLNWYQQKPGKAPKLLIYGASTLQSGVPSRFSGSGSGTDFTLTISSLQPEDFATYYCQQSYDNPLTFGQGTKVEIK | 0.5 ratio

Second part, the binder after the results:

Row | 100 nM FACS (MFI Ratio) | Binder
15 | 0.2 ratio | CD40L-168 (antibody, V domains shown, IgG2) VH: EVQLLESGGGLVQPGGSLRLSCAASGFDFSDYEMSWVRQAPGKGLEWVSSITSEGGSTYYADSVKGRFTISRDNSKNTLYLQMNSLRAEDTAVYYCAKPDVLFDYWGQGTLVTVSS VL: DIQMTQSPSSLSASVGDRVTITCSGDNLGDKYVHWYQQKPGKAPKLLIYGKNIRPSGVPSRFSGSGSGTDFTLTISSLQPEDFATYYCQSGSSSANAVFGQGTKVEIK
16 | 0.4 ratio | CD40L-174 (antibody, V domains shown, IgG2) VH: EVQLLESGGGLVQPGGSLRLSCAASGFDFSDYEMSWVRQAPGKGLEWVSSITSEGGSTYYADSVKGRFTISRDNSKNTLYLQMNSLRAEDTAVYYCAKPGRLFDYWGQGTLVTVSS VL: DIQMTQSPSSLSASVGDRVTITCRASESVEYHGTSLMHWYQQKPGKAPKLLIYGRNKRPSGVPSRFSGSGSGTDFTLTISSLQPEDFATYYCQAWDRDTGVFGQGTKVEIK
17 | 1.4 ratio | CD40L-167 (antibody, V domains shown, IgG2) VH: EVQLLESGGGLVQPGGSLRLSCAASGGYNFRDYMHWVRQAPGKGLEWVSSISNSGGSTYYADSVKGRFTISRDNSKNTLYLQMNSLRAEDTAVYYCAKNLGQGFDYWGQGTLVTVSS VL: DIQMTQSPSSLSASVGDRVTITCRASESVEYHGTSLMHWYQQKPGKAPKLLIYGTSNLESGVPSRFSGSGSGTDFTLTISSLQPEDFATYYCQQVVWRPFTFGQGTKVEIK
18 | 0.4 ratio | CD40L-173 (antibody, V domains shown, IgG2) VH: EVQLLESGGGLVQPGGSLRLSCAASGGYNFRDYMHWVRQAPGKGLEWVATISGGGINTYYPDSVKGRFTISRDNSKNTLYLQMNSLRAEDTAVYYCAKDLGQGFDYWGQGTLVTVSS VL: DIQMTQSPSSLSASVGDRVTITCQSSQSVYSNNELSWYQQKPGKAPKLLIYGRNKRPSGVPSRFSGSGSGTDFTLTISSLQPEDFATYYCSQGTHVPPTFGQGTKVEIK
19 | 3.6 ratio | CD40L-183 (antibody, V domains shown, IgG2) VH: EVQLLESGGGLVQPGGSLRLSCAASGGYNFRDYMHWVRQAPGKGLEWVSSIVSSGGLTLYADSVKGRFTISRDNSKNTLYLQMNSLRAEDTAVYYCAKDLGQGFDYWGQGTLVTVSS VL: DIQMTQSPSSLSASVGDRVTITCTGDKLAEKYVSWYQQKPGKAPKLLIYQNDKRPSGVPSRFSGSGSGTDFTLTISSLQPEDFATYYCQQSYSRPYTFGQGTKVEIK
20 | 0.4 ratio | CD40L-175 (antibody, V domains shown, IgG2) VH: EVQLLESGGGLVQPGGSLRLSCAASGFDFSDYEMSWVRQAPGKGLEWVSSITSEGGSTYYADSVKGRFTISRDNSKNTLYLQMNSLRAEDTAVYYCAKPDKDFDYWGQGTLVTVSS VL: DIQMTQSPSSLSASVGDRVTITCRASQTIGDYLNWYQQKPGKAPKLLIYDASNLQSGVPSRFSGSGSGTDFTLTISSLQPEDFATYYCQQSYELPLTFGQGTKVEIK
21 | 4.3 ratio | CD40L-180 (antibody, V domains shown, IgG2) VH: EVQLLESGGGLVQPGGSLRLSCAASGFDFSDYEMSWVRQAPGKGLEWVSSITSEGGSTYYADSVKGRFTISRDNSKNTLYLQMNSLRAEDTAVYYCAKPDVLFDYWGQGTLVTVSS VL: DIQMTQSPSSLSASVGDRVTITCRASQSILSYLNWYQQKPGKAPKLLIYGASSLESGVPSRFSGSGSGTDFTLTISSLQPEDFATYYCQQTYDTPLTFGQGTKVEIK

— patent US20230265179A1 (TWIST BIOSCIENCE, published 2023)
